The DeepSol protein solubility set

assay: soluble on expression in E. coli; label from the status in PepcDB or PDB records

**Q.** With “GPGSMSLIFFCIIPHPFTRTKCSKVSIIMQMLAPGAFFNALKVRGVTHFFGVPDPILKYFCAFVASHTTPKEHIITANEGNAVAMAAGYHLATGGLPLVYMKNSGLGDALNPLISLTHAEACSIPMFIVVGWRGAPDAGNELPCAAEGRLTEGILRAAEVPYIILSSACGNGEQSMETALDMALKHVHNSRTPYAFLVPPNFFEECAYEGVGEGIAELPMTRREAVEQALRQIDRGDIVVGAASFLAREIFEVQECAGMRHGPQFFPVGSMGHCSSVAAGIALAKPERQVFCFDGDGAFLMHMGSSATIGGVAAIHLIGTGETSLMRNYKHVVFNNGSHDSAGGQPTVSFDVSLTQVASACGFRTVREEPVMDLGETVRALQELKKAEGPAFLEVFVRRGGHSNPQCELPSLDESKQALTNCLRG” as the sequence, how does the “soluble on expression in E. coli” value read?
**A.** not soluble

**Q.** With “MAHHHHHHMEALFYDHAVASTATRQADLRQALQAFLADAASRSAVQLIALFVHIPVPSTVSVASHTASGSRTSSRTSSSREGGSAAARHAATGKAASAASPSPPAASRRRCNAAKLAWCAWEADRRLRQAAEDASEMNKWLAHDDLSASRKAGAGIARSYCRGAFVVAVAFLAPCTRDDIVVYESWQRCTEMCAEASAADVARGSASRTTRMLSPLRHARLIALSLGAPSLLLSWAERPTRCHLDSLLLPHQSLLVDLSWWVATASGSAGTVSDAAAGSRVSNSVLRDIFISDVQRSLKLPKGDSRCAVWISYATLLESLHPQVMGRIDGADGDGVSVDMRVAGSASRRKRGRNTLCGEFSGVDEQAFMMTYARIRHLLSSLNASQAGAVGHTRFLRVVLSYGGPSSALRRQLVHTCSRTEHGVTAVDAALLRTRSLVDVHALFGVLAGQDTVNVYSEAAAFVRTARRRASAGEAAQQRHQRIAVQSARVEVTSSPSSGPPGTEHEGVDSGAGNLCHNAFVERGARALARRLRLWERKRLGKRGKRGVHVRPRDKAARRPMKRGHAGTNDADSERVLVHAVERASRAAATPKTGNKRRAEPLASVDGRPSASATRALLPPQKQRRTDAVAVSPTLATDTALRWSEDVAGSG” as the sequence, how does the “soluble on expression in E. coli” value read?
**A.** not soluble

**Q.** With “MAHHHHHHMFLFRHSAEPMEAEEERHERVDSTTEPHNAATAAARKRRTSADVANGEVSREASGVAESFDETGGAPHTPREGTAPPPDVHDMLEHQRPRDEDDAEADMAAAALAASAPAPFHGVPTLPMPRTCDENPQAEADGNSTQRHRSYSHTSRFAAPSPRSTSGISRGRSYSLSGLSAAELADVHEQQYRRCTSIVKSARCISARRASSVNGVVGVIDDLYTLASRRSSAMTEAERVAVERMIENEYRRQEAAERSAQFALARESIIVNEELAREKATYVRRMHLNEELHARLAKSSRTRQERMTAAAQRRQEIEQERLRVLYGSMMEKDTRYHFRNPYEMMAAQRRYSIEMRSPAAIAPQRRASSPSTRASGNAQMSPRSAEGVANCTTEDRCTSSPATRRRSSTPSIAKSKPRQCLPLDAWKKPVPPRKDSCRSDISAEHRCRSPTDWRATAVLEHPRQWH” as the sequence, how does the “soluble on expression in E. coli” value read?
**A.** not soluble

**Q.** Which “soluble on expression in E. coli” value does the source give for “MCTSLTLETKNGQHLFARTMDFTLDMNQEVIIIPRHYQWNNITGEIINTKHATVGMGINHQGRIIMADGVNEAGMTCATLYFPGFATYSQSIDDNTTNLAPFDFVTWSLTQFNSVKELKKSVDSITFLDIPLPDLGLTPPLHWILADKWGDCIVLDPTSEGLKLYDNPLGVMTNSPEFNWHLQNLRQYIGLKSQPFAPTEWSNLPLSAFGQGSGSMGLPGDFTPPSRFVRAAYGKQNIQGIDSEEEGVSALFHILSNCEVPKGGVITEEGALDNTIYTSVMCMESGTYYYHTYDCRQIIAVHLFHENLDTDEIKAYPFQRKQKIFYEN” here?
**A.** not soluble

**Q.** For “MAHHHHHHMSFTEWPVSRVRQEFVDYFKKQGHTFVPSSPVCPHDDPTLLFINAGMNQFKALFLGTADPNTDFGRLKRAANSQMCIRAGGKHNDLEDVGRDTYHHTFFEMLGSWSFGDYFKKEAIQWAWELLTEVYKLPKDQLYVTYFEGDESNGLDPDLEAKELWGQLLPESQIVPGNAKDNFWEMGDTGPCGPCSEVHFDRIGRRNAASLVNKDDPMVVEIWNLVFMQFERRAGGFLTPLPQKHIDTGMGLERLTSILQGVKSNYDTDAWIPLFEAIQTATGYPKSYAEIRNDPDSDALVAYRVVADHIRCLTSAVGDGVMPDSVGRGFVLRRIIRRAVRYGVQFLGAKPGFFTQLVDSVCTSLGPFFPHLKEPRNIQRIKAVLADEEQSFAKTWEMGLKHFNHAVNECRANSSKVISGSEAFVLHDRYGFPVDLTCLLAEKDGMTVDLEGFNTEMKESKVSAGRVAATKTFIDAYQLEELKTRGIPQTNDAAKYVWEDYTGDVLAIFDKKNSKFISLLEPGNDLGAEGVGIILSTTNFYAESGGQVYDTGRLVAASDSVFEGRRRTTWPATWCTWATSASTLPPRSPRLRWCSCRWTTSAACRSRQTIPRPTS”, which “soluble on expression in E. coli” value is on record?
**A.** not soluble

**Q.** With “SALKAEGAALDCFEVTLKCEEGEDEEEAMVVAVIPRPEPMLRVTQQEKTPPPRPSPLEAGSDGCEEPKQQVSWEQEFLVGSSPGGSGRALCMVCGAEIRAPSADTARSHILEQHPHTLDLSPSEKSNILEAWSEGVALLQDVRAEQPSPPNSDSGQDAHPDPDANPDAARMPAEIVVLLDSEDNPSLPKRSRPRGLRPLELPAVPATEPGNKKPRGQRWKEPPGEEPVRKKRGRPMTKNLDPDPEPPSPDSPTETFAAPAEVRHFTDGSFPAGFVLQLFSHTQLRGPDSKDSPKDREVAEGGLPRAESPSPAPPPGLRGTLDLQVIRVRMEEPPAVSLLQDWSRHPQGTKRVGAGDTSDWPTVLSESSTTVAGKPEKGNGV” as the sequence, how does the “soluble on expression in E. coli” value read?
**A.** soluble

**Q.** For “MKIKEVIVVEGKDDTAAIRRAVDADTIETNGAAVGADVIERIKLAKERRGVIIFTDPDFPGEKIRRTIAEQVPGCKHAFLPREAAKAKNGKGIGVEHASPDEIRRALANVYEEASDWKEEITFAELIEAGLIGGAMARRRRQRLGEELKIGYANGRQFHKRLQVFRISRDAFYAALAHVMQEEADDV”, which “soluble on expression in E. coli” value is on record?
**A.** not soluble

**Q.** For “SLQMKNYQQTLKRMSDRSSGFLGVGVHKQKLGIGAIAIVVTDKDGEIVDCEMMSGVTVFSRFKPLTDFVGMSLNECKVLLQNESVDIALHGALKKIEEQMNRKENVTT”, which “soluble on expression in E. coli” value is on record?
**A.** soluble

**Q.** With “SLKDELHKLSYLDANRILEERLTETRYFSLNSNEYKNFQTSNPNFLFAAVIDGHAGGTIADVARKSLGYYLKKELIEIGVNSKRGGCRERAIVSALKKAHLNFDNDLLNQSKDYFLNGTSKYARTGACSLSVLIDERNYYISNIGDSVGLLIKKHFYLPLNRIHNASEFNEKRKLLEEHPNEEDILVCKICTRDYKTVNNNNTYELCKTPFHLLSHHYDNCYVKGRLQPTRSFGDFHLKKKMFAYSVDGTRLFVPEPHSFPYISAEPELRVMKKHPDDQFIVLMSDGVYEFLNHAQVINVIKTYGASPERAAKELINRVLEAAAYSSGMTMKQLLNLDPSIRRNFYDDVSVVVIKLN” as the sequence, how does the “soluble on expression in E. coli” value read?
**A.** not soluble

**Q.** Which “soluble on expression in E. coli” value does the source give for “MGHHHHHHSHMSIFTPTNQIRLTNVAVVRMKRAGKRFEIACYKNKVVGWRSGVEKDLDEVLQTHSVFVNVSKGQVAKKEDLISAFGTDDQTEICKQILTKGEVQVSDKERHTQLEQMFRDIATIVADKCVNPETKRPYTVILIERAMKDIHYSVKTNKSTKQQALEVIKQLKEKMKIERAHMRLRFILPVNEGKKLKEKLKPLIKVIESEDYGQQLEIVCLIDPGCFREIDELIKKETKGKGSLEVLNLKDVEEGDEKFE” here?
**A.** soluble

**Q.** With “MAHHHHHHMKAVSIRQVSAIIILDNNGKRIAVKYYNDQAPLKGENKLVPKNTNKDLVSNAFENTYNNLRTVEDQKLFESDITEKARKLGGDSSETEVLVLNKFTILYLLINDVSIYIVGEESDNEIILHEIMQTVQQCLDNVTNNQIGKKQLLDKLDSIYLILDEIADSGIIMETNPNVIINRLYMHESDLQEHTPLNQAISSAKENIIRSLLSGT” as the sequence, how does the “soluble on expression in E. coli” value read?
**A.** not soluble

**Q.** For “GAMASLVVPNLMGNKDKADRQKVMSDLVALESTLDMYRLDNNRYPTTEQGLRALVSKPTVQPEPRNYRQDGYIRRLPQDPWGGDYQLLNPGQYSDIDIFSPGPDGVPNTEDDIGNWTLGNAQP”, which “soluble on expression in E. coli” value is on record?
**A.** soluble

**Q.** Which “soluble on expression in E. coli” value does the source give for “MKHMLIAGGGIGGLSAAISLRKAGFSVTLCEAASENRKTGAGILQPQNALAVLKELGVFEDCCKHGFQTEWFKTFDEQGNLLFQVSESFLDDSLPGRNNILRKTLNDILMKHAEAVGVDIKWGKKVVAYEETAESVTALCEDGEKMQADILAGFDGIHSVVRDKMLQKETEKEHLGMGAWRFYIELPDYTFEDATFMYRSGDTQIGVVPLAQHAGYVFVLQPCTSDYWDEEDTRFDRVKEILSGFRGLDFVTKHMSKQHPVIFNKLEQVAVQEPWHKGRVIIGGDAAHAGAPTLAQGAAMAIEDAIVLAEELQNHADHETALQAYYKRRAPRALKVQNLSSEIVRRRLKGEPGAEELIGECYAVLREGYLEHHHHHH” here?
**A.** not soluble

**Q.** Which “soluble on expression in E. coli” value does the source give for “MGHHHHHHSHMDCCASRGCSVPTGPATTICSSDKSCRCGVCLPSTCPHTVWLLEPTCCDNCPPPCHIPQPCVPTCFLLNSCQPTPGLETLNLTTFTQPCCEPCLPRGC” here?
**A.** not soluble

**Q.** For “MGSDKIHHHHHHMKKILYLHAGAELYGADKVLLELIKGLDKNEFEAHVILPNDGVLVPALREVGAQVEVINYPILRRKYFNPKGIFDYFISYHHYSKQIAQYAIENKVDIIHNNTTAVLEGIYLKRKLKLPLLWHVHEIIVKPKFISDSINFLMGRFADKIVTVSQAVANHIKQSPHIKDDQISVIYNGVDNKVYYQSDARSVRERFDIDEEALVIGMVGRVNAWKGQGDFLEAVAPILEQNPKAIAFIAGSAFEGEEWRVVELEKKISQLKVSSQVRRIDYYANTTELYNMFDIFVLPSTNPDPLPTVVLEAMACGKPVVGYRHGGVCEMVKEGVNGFLVTPNSPLNLSKVILQLSENINLRKKIGNNSIERQKEHFSLKSYVKNFSKVYTSLKVY”, which “soluble on expression in E. coli” value is on record?
**A.** not soluble

**Q.** With “MGSDKIHHHHHHVSSSLKDIQNKNQELDTKKQILSALNIRDVKDADAEYNKYVKGDMLMNVDGTLTENTDGFSISYEKEAKENNRLHVFVCEVDGETKYVVPVYGAGLWGAIWGYVALNADKDTVYGVYFSHASETPGLGAEIAGAAFQNEFSGKKVLKDGQVALAVEKNGKVTDPAYQVDGISGGTITSKGVDAMIKACLSQYDKFLTNN” as the sequence, how does the “soluble on expression in E. coli” value read?
**A.** not soluble

**Q.** With “MTEQSVKNTPQHETQSKPKQKTVKLIIKRQDTSDSKPYEETFEIPYRENLNVIACLMEIRRNPVNIKGEKTTPVVWDMNCLEEVCGACSMVINGRARQSCSAIVDQLEQPIRLEPMNTFPVIRDLQVDRSRMFDNLKRMKAWIPIDGTYDLGPGPRMPEKKRQTAYELSKCMTCGVCLEVCPNVTENNKFVGAQAISQVRLFNLHPTGSMTKDERLNALMGTGGLQQCGNSQNCVNACPKGIPLTTSIAAMNRETTFHMFKSFFGSDHEVE” as the sequence, how does the “soluble on expression in E. coli” value read?
**A.** not soluble

**Q.** For “MITMKDIIKEGHPTLRKVAEPVPLPPSEEDKRILQSLLDYVKMSQDPELAAKYGLRPGIGLAAPQINVSKRMIAVHVTDENGTLYSYALFNPKIVSHSVQQCYLTTGEGCLSVDRDVPGYVLRYARITVTGTTLDGEEVTLRLKGLPAIVFQHEIDHLNGIMFYDRINPADPFQVPDGAIPIGR”, which “soluble on expression in E. coli” value is on record?
**A.** soluble

**Q.** For “METQKQTRRRGEKLENTILTAAWDQLNKVGYKDLTITEIASLAGTNKTTIYRRWPNKSLLVVSAFSKFVPRPKMHIPNSGNLRDDLVKLFEQLVNQLEFLTSGKFEGLLLDRLRDTSIDKVFGRVDENNALQKFIVIILQRAEKRGELKINQLSQRVLELPFLLLLNEVISTRGIVPKESLTEIVDKILLPVFLRSN”, which “soluble on expression in E. coli” value is on record?
**A.** not soluble
